Paper PMC8158011 (Proceedings of the National Academy of Sciences of the …, 2021)

Molecular target: T1, FGFR4-Ecto-Fc (ectodomain of human FGFR4 fused to the Fc region of human IgG1) (human, UniProt P22455 22-369)
T1 sequence (looked up): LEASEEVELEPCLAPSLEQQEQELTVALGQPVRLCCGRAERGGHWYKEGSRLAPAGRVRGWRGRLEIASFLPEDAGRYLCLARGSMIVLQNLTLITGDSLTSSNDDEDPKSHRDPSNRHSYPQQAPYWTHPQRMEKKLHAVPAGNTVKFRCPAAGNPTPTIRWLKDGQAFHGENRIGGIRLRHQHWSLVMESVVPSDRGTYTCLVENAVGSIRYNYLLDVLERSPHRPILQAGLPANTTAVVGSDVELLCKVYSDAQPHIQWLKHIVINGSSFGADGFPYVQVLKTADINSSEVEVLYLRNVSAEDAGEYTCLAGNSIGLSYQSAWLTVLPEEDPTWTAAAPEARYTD
Assay: pull-down

binding result: binds
B1: purified recombinant human FAM3B-His protein (ligand, UniProt P58499 30-235, looked up)
chain: ELIPDAPLSSAAYSIRSIGERPVLKAPVPKRQKCDHWTPCPSDTYAYRLLSGGGRSKYAKICFEDNLLMGEQLGNVARGINIAIVNYVTGNVTATRCFDMYEGDNSGPMTKFIQSAAPKSLLFMVTYDDGSTRLNNDAKNAIEALGSKEIRNMKFRSSWVFIAAKGLELPSEIQREKINHSDAKNNRYSGWPAEIQIEGCIPKERS
